The RNAGym collection of RNA variant scans (doi:10.1021/acssynbio.7b00057)

B1: Pistol ribozyme (parent)
chain: GGGUCGUUGUUCCAUAAUCGCGUGGAUAUGGCACGCAAGUUUCUACCGGGCACCGUAAAUGUCCGACUGGAGCCGUUCGGGCGGCUAUAAACAGACCUCAGGCCCGAAGCGUGGCGGCACCUGCCGCCGGUGGUAAAAAAGAUCGGAAGAGCACACGUCU

Variants of: B1
Assay: aptazyme ON/OFF ratio, guanine; higher = stronger switching; co-transcriptional cleavage with and without guanine

In order of falling “aptazyme ON/OFF ratio” value:
1. GGGUCGGCUCGUCAUAAUCGCGUGGAUAUGGCACGCAAGUUUCUACCGGGCACCGUAAAUGUCCGACUGGAGCCGUUCGGGCGGCUAUAAACAGACCUCAGGCCCGAAGCGUGGCGGCACCUGCCGCCGGUGGUAAAAAAGAUCGGAAGAGCACACGUCU  2.47
2. GGGUCGAGCUGUAAUAAUCGCGUGGAUAUGGCACGCAAGUUUCUACCGGGCACCGUAAAUGUCCGACUGGAGCCGUUCGGGCGGCUAUAAACAGACCUCAGGCCCGAAGCGUGGCGGCACCUGCCGCCGGUGGUAAAAAAGAUCGGAAGAGCACACGUCU  1.44
3. GGGUCGGGGUCAAAUAAUCGCGUGGAUAUGGCACGCAAGUUUCUACCGGGCACCGUAAAUGUCCGACUGGAGCCGUUCGGGCGGCUAUAAACAGACCUCAGGCCCGAAGCGUGGCGGCACCUGCCGCCGGUGGUAAAAAAGAUCGGAAGAGCACACGUCU  1.42
4. GGGUCGUUUGUGGAUAAUCGCGUGGAUAUGGCACGCAAGUUUCUACCGGGCACCGUAAAUGUCCGACUGGAGCCGUUCGGGCGGCUAUAAACAGACCUCAGGCCCGAAGCGUGGCGGCACCUGCCGCCGGUGGUAAAAAAGAUCGGAAGAGCACACGUCU  1.41
5. GGGUCGCUACCACAUAAUCGCGUGGAUAUGGCACGCAAGUUUCUACCGGGCACCGUAAAUGUCCGACUGGAGCCGUUCGGGCGGCUAUAAACAGACCUCAGGCCCGAAGCGUGGCGGCACCUGCCGCCGGUGGUAAAAAAGAUCGGAAGAGCACACGUCU  1.34
6. GGGUCGAUUUUUCAUAAUCGCGUGGAUAUGGCACGCAAGUUUCUACCGGGCACCGUAAAUGUCCGACUGGAGCCGUUCGGGCGGCUAUAAACAGACCUCAGGCCCGAAGCGUGGCGGCACCUGCCGCCGGUGGUAAAAAAGAUCGGAAGAGCACACGUCU  1.34
7. GGGUCGGAACGUCAUAAUCGCGUGGAUAUGGCACGCAAGUUUCUACCGGGCACCGUAAAUGUCCGACUGGAGCCGUUCGGGCGGCUAUAAACAGACCUCAGGCCCGAAGCGUGGCGGCACCUGCCGCCGGUGGUAAAAAAGAUCGGAAGAGCACACGUCU  1.28
8. GGGUCGAAGCUGUAUAAUCGCGUGGAUAUGGCACGCAAGUUUCUACCGGGCACCGUAAAUGUCCGACUGGAGCCGUUCGGGCGGCUAUAAACAGACCUCAGGCCCGAAGCGUGGCGGCACCUGCCGCCGGUGGUAAAAAAGAUCGGAAGAGCACACGUCU  1.26
9. GGGUCGAAUGUUGAUAAUCGCGUGGAUAUGGCACGCAAGUUUCUACCGGGCACCGUAAAUGUCCGACUGGAGCCGUUCGGGCGGCUAUAAACAGACCUCAGGCCCGAAGCGUGGCGGCACCUGCCGCCGGUGGUAAAAAAGAUCGGAAGAGCACACGUCU  1.26
10. GGGUCGCUGCCUGAUAAUCGCGUGGAUAUGGCACGCAAGUUUCUACCGGGCACCGUAAAUGUCCGACUGGAGCCGUUCGGGCGGCUAUAAACAGACCUCAGGCCCGAAGCGUGGCGGCACCUGCCGCCGGUGGUAAAAAAGAUCGGAAGAGCACACGUCU  1.24
11. GGGUCGCUGUCGUAUAAUCGCGUGGAUAUGGCACGCAAGUUUCUACCGGGCACCGUAAAUGUCCGACUGGAGCCGUUCGGGCGGCUAUAAACAGACCUCAGGCCCGAAGCGUGGCGGCACCUGCCGCCGGUGGUAAAAAAGAUCGGAAGAGCACACGUCU  1.22
12. GGGUCGAUAUAAAAUAAUCGCGUGGAUAUGGCACGCAAGUUUCUACCGGGCACCGUAAAUGUCCGACUGGAGCCGUUCGGGCGGCUAUAAACAGACCUCAGGCCCGAAGCGUGGCGGCACCUGCCGCCGGUGGUAAAAAAGAUCGGAAGAGCACACGUCU  1.22
13. GGGUCGUGACUGGAUAAUCGCGUGGAUAUGGCACGCAAGUUUCUACCGGGCACCGUAAAUGUCCGACUGGAGCCGUUCGGGCGGCUAUAAACAGACCUCAGGCCCGAAGCGUGGCGGCACCUGCCGCCGGUGGUAAAAAAGAUCGGAAGAGCACACGUCU  1.2
14. GGGUCGCAGGGAAAUAAUCGCGUGGAUAUGGCACGCAAGUUUCUACCGGGCACCGUAAAUGUCCGACUGGAGCCGUUCGGGCGGCUAUAAACAGACCUCAGGCCCGAAGCGUGGCGGCACCUGCCGCCGGUGGUAAAAAAGAUCGGAAGAGCACACGUCU  1.18
15. GGGUCGUGUAAGGAUAAUCGCGUGGAUAUGGCACGCAAGUUUCUACCGGGCACCGUAAAUGUCCGACUGGAGCCGUUCGGGCGGCUAUAAACAGACCUCAGGCCCGAAGCGUGGCGGCACCUGCCGCCGGUGGUAAAAAAGAUCGGAAGAGCACACGUCU  1.18
16. GGGUCGGCCGGACAUAAUCGCGUGGAUAUGGCACGCAAGUUUCUACCGGGCACCGUAAAUGUCCGACUGGAGCCGUUCGGGCGGCUAUAAACAGACCUCAGGCCCGAAGCGUGGCGGCACCUGCCGCCGGUGGUAAAAAAGAUCGGAAGAGCACACGUCU  1.17
17. GGGUCGGCAUCAGAUAAUCGCGUGGAUAUGGCACGCAAGUUUCUACCGGGCACCGUAAAUGUCCGACUGGAGCCGUUCGGGCGGCUAUAAACAGACCUCAGGCCCGAAGCGUGGCGGCACCUGCCGCCGGUGGUAAAAAAGAUCGGAAGAGCACACGUCU  1.17
18. GGGUCGCUGCGCGAUAAUCGCGUGGAUAUGGCACGCAAGUUUCUACCGGGCACCGUAAAUGUCCGACUGGAGCCGUUCGGGCGGCUAUAAACAGACCUCAGGCCCGAAGCGUGGCGGCACCUGCCGCCGGUGGUAAAAAAGAUCGGAAGAGCACACGUCU  1.17
19. GGGUCGCACGUACAUAAUCGCGUGGAUAUGGCACGCAAGUUUCUACCGGGCACCGUAAAUGUCCGACUGGAGCCGUUCGGGCGGCUAUAAACAGACCUCAGGCCCGAAGCGUGGCGGCACCUGCCGCCGGUGGUAAAAAAGAUCGGAAGAGCACACGUCU  1.17
20. GGGUCGCUGUCCAAUAAUCGCGUGGAUAUGGCACGCAAGUUUCUACCGGGCACCGUAAAUGUCCGACUGGAGCCGUUCGGGCGGCUAUAAACAGACCUCAGGCCCGAAGCGUGGCGGCACCUGCCGCCGGUGGUAAAAAAGAUCGGAAGAGCACACGUCU  1.15
21. GGGUCGAGCCAUAAUAAUCGCGUGGAUAUGGCACGCAAGUUUCUACCGGGCACCGUAAAUGUCCGACUGGAGCCGUUCGGGCGGCUAUAAACAGACCUCAGGCCCGAAGCGUGGCGGCACCUGCCGCCGGUGGUAAAAAAGAUCGGAAGAGCACACGUCU  1.13
22. GGGUCGAAACGUUAUAAUCGCGUGGAUAUGGCACGCAAGUUUCUACCGGGCACCGUAAAUGUCCGACUGGAGCCGUUCGGGCGGCUAUAAACAGACCUCAGGCCCGAAGCGUGGCGGCACCUGCCGCCGGUGGUAAAAAAGAUCGGAAGAGCACACGUCU  1.13
23. GGGUCGCAGUGGAAUAAUCGCGUGGAUAUGGCACGCAAGUUUCUACCGGGCACCGUAAAUGUCCGACUGGAGCCGUUCGGGCGGCUAUAAACAGACCUCAGGCCCGAAGCGUGGCGGCACCUGCCGCCGGUGGUAAAAAAGAUCGGAAGAGCACACGUCU  1.1
24. GGGUCGCACUAUGAUAAUCGCGUGGAUAUGGCACGCAAGUUUCUACCGGGCACCGUAAAUGUCCGACUGGAGCCGUUCGGGCGGCUAUAAACAGACCUCAGGCCCGAAGCGUGGCGGCACCUGCCGCCGGUGGUAAAAAAGAUCGGAAGAGCACACGUCU  1.1
25. GGGUCGUAUUUCGAUAAUCGCGUGGAUAUGGCACGCAAGUUUCUACCGGGCACCGUAAAUGUCCGACUGGAGCCGUUCGGGCGGCUAUAAACAGACCUCAGGCCCGAAGCGUGGCGGCACCUGCCGCCGGUGGUAAAAAAGAUCGGAAGAGCACACGUCU  1.09
26. GGGUCGAUACCGGAUAAUCGCGUGGAUAUGGCACGCAAGUUUCUACCGGGCACCGUAAAUGUCCGACUGGAGCCGUUCGGGCGGCUAUAAACAGACCUCAGGCCCGAAGCGUGGCGGCACCUGCCGCCGGUGGUAAAAAAGAUCGGAAGAGCACACGUCU  1.09
27. GGGUCGCGCGUAGAUAAUCGCGUGGAUAUGGCACGCAAGUUUCUACCGGGCACCGUAAAUGUCCGACUGGAGCCGUUCGGGCGGCUAUAAACAGACCUCAGGCCCGAAGCGUGGCGGCACCUGCCGCCGGUGGUAAAAAAGAUCGGAAGAGCACACGUCU  1.09
28. GGGUCGUGCUAAAAUAAUCGCGUGGAUAUGGCACGCAAGUUUCUACCGGGCACCGUAAAUGUCCGACUGGAGCCGUUCGGGCGGCUAUAAACAGACCUCAGGCCCGAAGCGUGGCGGCACCUGCCGCCGGUGGUAAAAAAGAUCGGAAGAGCACACGUCU  1.07
29. GGGUCGACGUAGAAUAAUCGCGUGGAUAUGGCACGCAAGUUUCUACCGGGCACCGUAAAUGUCCGACUGGAGCCGUUCGGGCGGCUAUAAACAGACCUCAGGCCCGAAGCGUGGCGGCACCUGCCGCCGGUGGUAAAAAAGAUCGGAAGAGCACACGUCU  1.06
30. GGGUCGAUCAAGCAUAAUCGCGUGGAUAUGGCACGCAAGUUUCUACCGGGCACCGUAAAUGUCCGACUGGAGCCGUUCGGGCGGCUAUAAACAGACCUCAGGCCCGAAGCGUGGCGGCACCUGCCGCCGGUGGUAAAAAAGAUCGGAAGAGCACACGUCU  1.06
31. GGGUCGUAAUCCCAUAAUCGCGUGGAUAUGGCACGCAAGUUUCUACCGGGCACCGUAAAUGUCCGACUGGAGCCGUUCGGGCGGCUAUAAACAGACCUCAGGCCCGAAGCGUGGCGGCACCUGCCGCCGGUGGUAAAAAAGAUCGGAAGAGCACACGUCU  1.05
32. GGGUCGUCCCAACAUAAUCGCGUGGAUAUGGCACGCAAGUUUCUACCGGGCACCGUAAAUGUCCGACUGGAGCCGUUCGGGCGGCUAUAAACAGACCUCAGGCCCGAAGCGUGGCGGCACCUGCCGCCGGUGGUAAAAAAGAUCGGAAGAGCACACGUCU  1.04
33. GGGUCGGACACCAAUAAUCGCGUGGAUAUGGCACGCAAGUUUCUACCGGGCACCGUAAAUGUCCGACUGGAGCCGUUCGGGCGGCUAUAAACAGACCUCAGGCCCGAAGCGUGGCGGCACCUGCCGCCGGUGGUAAAAAAGAUCGGAAGAGCACACGUCU  1.04
34. GGGUCGAGAAUUUAUAAUCGCGUGGAUAUGGCACGCAAGUUUCUACCGGGCACCGUAAAUGUCCGACUGGAGCCGUUCGGGCGGCUAUAAACAGACCUCAGGCCCGAAGCGUGGCGGCACCUGCCGCCGGUGGUAAAAAAGAUCGGAAGAGCACACGUCU  1.04
35. GGGUCGGACAGGGAUAAUCGCGUGGAUAUGGCACGCAAGUUUCUACCGGGCACCGUAAAUGUCCGACUGGAGCCGUUCGGGCGGCUAUAAACAGACCUCAGGCCCGAAGCGUGGCGGCACCUGCCGCCGGUGGUAAAAAAGAUCGGAAGAGCACACGUCU  1.03
36. GGGUCGUCACCCGAUAAUCGCGUGGAUAUGGCACGCAAGUUUCUACCGGGCACCGUAAAUGUCCGACUGGAGCCGUUCGGGCGGCUAUAAACAGACCUCAGGCCCGAAGCGUGGCGGCACCUGCCGCCGGUGGUAAAAAAGAUCGGAAGAGCACACGUCU  1.02
